{"source": "the supplement of paper PMC10598134", "assay": "collision cross section of modified peptide (TIMS, N2, iRT-aligned); higher = larger / more extended gas-phase ion", "summary_of_the_method": "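Values are averages of 1–3 technical replicates of the most abundant feature for each charge state. Collision cross section was obtained from the Mason-Schamp equation after 1/K0 calibration with three reference ions and run-wise alignment to the median iRT peptide deviation. Synthetic peptide pools (iRT standard spiked 1:40) were separated on a 120-min nanoflow C18 gradient at 60 °C, analysed on a timsTOF Pro/HT (dda-PASEF, nitrogen, ~2.4 mbar) and identified with MaxQuant.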", "key": {"[1]": {"conditions": "charge state: 2, modification: Dimethyl (K)"}, "[2]": {"conditions": "charge state: 3, modification: Dimethyl (K)"}, "[3]": {"conditions": "charge state: 2, modification: Formyl"}, "[4]": {"conditions": "charge state: 2, modification: Glutarylation"}, "[5]": {"conditions": "charge state: 2, modification: GlyGly (K)"}, "[6]": {"conditions": "charge state: 3, modification: GlyGly (K)"}, "[7]": {"conditions": "charge state: 2, modification: Malonyl"}, "[8]": {"conditions": "charge state: 3, modification: Methyl (K)"}, "[9]": {"conditions": "charge state: 2, modification: Succinyl"}, "[10]": {"conditions": "charge state: 2, modification: hydroxyisobutyryl"}, "[11]": {"conditions": "charge state: 2, modification: Acetyl (K)"}, "[12]": {"conditions": "charge state: 3, modification: Biotin"}, "[13]": {"conditions": "charge state: 2, modification: Butyryl"}, "[14]": {"conditions": "charge state: 2, modification: Citrullination (R)"}, "[15]": {"conditions": "charge state: 3, modification: Methyl (R)"}}, "note": "± gives the standard deviation.", "data": [{"sequence": "GSLEKGSPEDK [_GSLEK(Dimethyl (K))GSPEDK_]", "values": [{"measurement": "collision cross section", "setting": "[1]", "value": "362.2 ± 0.83", "unit": "Å²"}, {"measurement": "collision cross section", "setting": "[2]", "value": "433.68 ± 2.1", "unit": "Å²"}]}, {"sequence": "GSLEKGSPEDK [_GSLEK(Formyl)GSPEDK_]", "values": [{"measurement": "collision cross section", "setting": "[3]", "value": "358.29 ± 0.88", "unit": "Å²"}]}, {"sequence": "GSLEKGSPEDK [_GSLEK(Gluratylation)GSPEDK_]", "values": [{"measurement": "collision cross section", "setting": "[4]", "value": "373.46 ± 0.99", "unit": "Å²"}]}, {"sequence": "GSLEKGSPEDK [_GSLEK(GlyGly (K))GSPEDK_]", "values": [{"measurement": "collision cross section", "setting": "[5]", "value": "367.44 ± 0.9", "unit": "Å²"}, {"measurement": "collision cross section", "setting": "[6]", "value": "425.67 ± 1.6", "unit": "Å²"}]}, {"sequence": "GSLEKGSPEDK [_GSLEK(Malonyl)GSPEDK_]", "values": [{"measurement": "collision cross section", "setting": "[7]", "value": "365.48 ± 0.011", "unit": "Å²"}]}, {"sequence": "GSLEKGSPEDK [_GSLEK(Methyl (K))GSPEDK_]", "values": [{"measurement": "collision cross section", "setting": "charge state: 2, modification: Methyl (K)", "value": "357.31 ± 0.34", "unit": "Å²"}, {"measurement": "collision cross section", "setting": "[8]", "value": "434.75 ± 5.3", "unit": "Å²"}]}, {"sequence": "GSLEKGSPEDK [_GSLEK(Propionyl)GSPEDK_]", "values": [{"measurement": "collision cross section", "setting": "charge state: 2, modification: Propionyl", "value": "368.76 ± 0.94", "unit": "Å²"}]}, {"sequence": "GSLEKGSPEDK [_GSLEK(Succinyl)GSPEDK_]", "values": [{"measurement": "collision cross section", "setting": "[9]", "value": "366.43 ± 0.51", "unit": "Å²"}]}, {"sequence": "GSLEKGSPEDK [_GSLEK(Trimethyl (K))GSPEDK_]", "values": [{"measurement": "collision cross section", "setting": "charge state: 2, modification: Trimethyl (K)", "value": "363.82 ± 0.64", "unit": "Å²"}, {"measurement": "collision cross section", "setting": "charge state: 3, modification: Trimethyl (K)", "value": "436.7 ± 2.4", "unit": "Å²"}]}, {"sequence": "GSLEKGSPEDK [_GSLEK(hydroxyisobutyryl)GSPEDK_]", "values": [{"measurement": "collision cross section", "setting": "[10]", "value": "376.24 ± 0.91", "unit": "Å²"}]}, {"sequence": "GSLGAQKLANTCFNEIEK [_GSLGAQK(Acetyl (K))LANTCFNEIEK_]", "values": [{"measurement": "collision cross section", "setting": "[11]", "value": 470.8, "unit": "Å²"}]}, {"sequence": "GSLGAQKLANTCFNEIEK [_GSLGAQK(Biotin)LANTCFNEIEK_]", "values": [{"measurement": "collision cross section", "setting": "[12]", "value": "538.06 ± 0.96", "unit": "Å²"}]}, {"sequence": "GSLGAQKLANTCFNEIEK [_GSLGAQK(Butyryl)LANTCFNEIEK_]", "values": [{"measurement": "collision cross section", "setting": "[13]", "value": "475.25 ± 0.74", "unit": "Å²"}]}, {"sequence": "GSLGAQKLANTCFNEIEK [_GSLGAQK(Gluratylation)LANTCFNEIEK_]", "values": [{"measurement": "collision cross section", "setting": "[4]", "value": 469.86, "unit": "Å²"}]}, {"sequence": "GSLGAQKLANTCFNEIEK [_GSLGAQK(GlyGly (K))LANTCFNEIEK_]", "values": [{"measurement": "collision cross section", "setting": "[5]", "value": "500.39 ± 1.8", "unit": "Å²"}, {"measurement": "collision cross section", "setting": "[6]", "value": "528.63 ± 18", "unit": "Å²"}]}, {"sequence": "GSLGAQKLANTCFNEIEK [_GSLGAQK(Malonyl)LANTCFNEIEK_]", "values": [{"measurement": "collision cross section", "setting": "[7]", "value": 466.18, "unit": "Å²"}, {"measurement": "collision cross section", "setting": "charge state: 3, modification: Malonyl", "value": 511.38, "unit": "Å²"}]}, {"sequence": "GSLGAQKLANTCFNEIEK [_GSLGAQK(Methyl (K))LANTCFNEIEK_]", "values": [{"measurement": "collision cross section", "setting": "[8]", "value": 509.24, "unit": "Å²"}]}, {"sequence": "GSLGAQKLANTCFNEIEK [_GSLGAQK(Succinyl)LANTCFNEIEK_]", "values": [{"measurement": "collision cross section", "setting": "[9]", "value": "470.21 ± 0.66", "unit": "Å²"}]}, {"sequence": "GSLGAQKLANTCFNEIEK [_GSLGAQK(hydroxyisobutyryl)LANTCFNEIEK_]", "values": [{"measurement": "collision cross section", "setting": "[10]", "value": "476.97 ± 0.8", "unit": "Å²"}]}, {"sequence": "GSRGFPGEK [_GSRGFP(Hydroxyproline)GEK_]", "values": [{"measurement": "collision cross section", "setting": "charge state: 2, modification: Hydroxyproline", "value": "330.58 ± 0.79", "unit": "Å²"}]}, {"sequence": "GSYLGGYSAGRGIYSR [_GSYLGGYSAGR(Citrullination (R))GIYSR_]", "values": [{"measurement": "collision cross section", "setting": "[14]", "value": "429.9 ± 0.2", "unit": "Å²"}, {"measurement": "collision cross section", "setting": "charge state: 3, modification: Citrullination (R)", "value": "475.97 ± 0.76", "unit": "Å²"}]}, {"sequence": "GSYLGGYSAGRGIYSR [_GSYLGGYSAGR(Methyl (R))GIYSR_]", "values": [{"measurement": "collision cross section", "setting": "[15]", "value": 481.98, "unit": "Å²"}]}, {"sequence": "GTGRGGGGGGGGGAPR [_GTGR(Citrullination (R))GGGGGGGGGAPR_]", "values": [{"measurement": "collision cross section", "setting": "[14]", "value": "349.34 ± 0.64", "unit": "Å²"}]}, {"sequence": "GTGRGGGGGGGGGAPR [_GTGR(Methyl (R))GGGGGGGGGAPR_]", "values": [{"measurement": "collision cross section", "setting": "[15]", "value": "445.93 ± 3.2", "unit": "Å²"}]}, {"sequence": "GTISAPGKVVTAAAQAK [_GTISAPGK(Acetyl (K))VVTAAAQAK_]", "values": [{"measurement": "collision cross section", "setting": "[11]", "value": "440.91 ± 2.6", "unit": "Å²"}, {"measurement": "collision cross section", "setting": "charge state: 3, modification: Acetyl (K)", "value": "515.28 ± 2", "unit": "Å²"}]}, {"sequence": "GTISAPGKVVTAAAQAK [_GTISAPGK(Biotin)VVTAAAQAK_]", "values": [{"measurement": "collision cross section", "setting": "charge state: 2, modification: Biotin", "value": "458.66 ± 0.47", "unit": "Å²"}, {"measurement": "collision cross section", "setting": "[12]", "value": "550.8 ± 0.34", "unit": "Å²"}]}, {"sequence": "GTISAPGKVVTAAAQAK [_GTISAPGK(Butyryl)VVTAAAQAK_]", "values": [{"measurement": "collision cross section", "setting": "[13]", "value": "447.93 ± 0.25", "unit": "Å²"}, {"measurement": "collision cross section", "setting": "charge state: 3, modification: Butyryl", "value": "519.35 ± 2.9", "unit": "Å²"}]}, {"sequence": "GTISAPGKVVTAAAQAK [_GTISAPGK(Crotonyl)VVTAAAQAK_]", "values": [{"measurement": "collision cross section", "setting": "charge state: 2, modification: Crotonyl", "value": "447.33 ± 0.83", "unit": "Å²"}, {"measurement": "collision cross section", "setting": "charge state: 3, modification: Crotonyl", "value": "518.96 ± 1.2", "unit": "Å²"}]}, {"sequence": "GTISAPGKVVTAAAQAK [_GTISAPGK(Dimethyl (K))VVTAAAQAK_]", "values": [{"measurement": "collision cross section", "setting": "[1]", "value": "470.82 ± 0.68", "unit": "Å²"}, {"measurement": "collision cross section", "setting": "[2]", "value": "493.04 ± 1.7", "unit": "Å²"}]}, {"sequence": "GTISAPGKVVTAAAQAK [_GTISAPGK(Formyl)VVTAAAQAK_]", "values": [{"measurement": "collision cross section", "setting": "[3]", "value": "440.5 ± 0.16", "unit": "Å²"}, {"measurement": "collision cross section", "setting": "charge state: 3, modification: Formyl", "value": "511.74 ± 2.1", "unit": "Å²"}]}]}
